In patent US6858707B1, “Hypersensitive response elicitor fragments which are active but do not elicit a hypersensitive response” (EDEN Bioscience Corporation, priority 1998, dated 2005):
Several values for one entry are separate records, joined by “and”; a condition that tells them apart may be missing. Identical values can stand only once.

B1: Fragment 4: amino acids 169-403 of SEQ ID NO: 23, C-terminal fragment (protein, listed as Erwinia amylovora)
chain: MQSLFGDGQDGTQGSSSGGKQPTEGEQNAYKKGVTDALSGLMGNGLSQLLGNGGLGGGQGGNAGTGLDGSSLGGKGLQNLSGPVDYQQLGNAVGTGIGMKAGIQALNDIGTHRHSSTRSFVNKGDRAMAKEIGQFMDQYPEVFGKPQYQKGPGQEVKTDDKSWAKALSKPDDDGMTPASMEQFNKAKGMIKRPMAGDTGNGNLQARGAGGSSLGIDAMMAGDAINNMALGKLGAA
B2: Fragment 14: amino acids 76-168 of SEQ ID NO: 23, internal fragment (protein, listed as Erwinia amylovora)
chain: MGGGLGGGLGNGLGGSGGLGEGLSNALNDMLGGSLNTLGSKGGNNTTSTTNSPLDQALGINSTSQNDDSTSGTDSTSDSSDPMQQLLKMFSEI
B3: Fragment 1: full length Erwinia amylovora hypersensitive response elicitor, amino acids 1-403 of SEQ ID NO: 23, pET28(b) clone, positive control (protein, listed as Erwinia amylovora)
chain: MSLNTSGLGASTMQISIGGAGGNNGLLGTSRQNAGLGGNSALGLGGGNQNDTVNQLAGLLTGMMMMMSMMGGGGLMGGGLGGGLGNGLGGSGGLGEGLSNALNDMLGGSLNTLGSKGGNNTTSTTNSPLDQALGINSTSQNDDSTSGTDSTSDSSDPMQQLLKMFSEIMQSLFGDGQDGTQGSSSGGKQPTEGEQNAYKKGVTDALSGLMGNGLSQLLGNGGLGGGQGGNAGTGLDGSSLGGKGLQNLSGPVDYQQLGNAVGTGIGMKAGIQALNDIGTHRHSSTRSFVNKGDRAMAKEIGQFMDQYPEVFGKPQYQKGPGQEVKTDDKSWAKALSKPDDDGMTPASMEQFNKAKGMIKRPMAGDTGNGNLQARGAGGSSLGIDAMMAGDAINNMALGKLGAA
B4: Fragment 15: amino acids 105-209 of SEQ ID NO: 23, internal fragment (protein, listed as Erwinia amylovora)
chain: MLGGSLNTLGSKGGNNTTSTTNSPLDQALGINSTSQNDDSTSGTDSTSDSSDPMQQLLKMFSEIMQSLFGDGQDGTQGSSSGGKQPTEGEQNAYKKGVTDALSGL
B5: Fragment 10: amino acids 1-168 of SEQ ID NO: 23, N-terminal fragment (protein, listed as Erwinia amylovora)
chain: MSLNTSGLGASTMQISIGGAGGNNGLLGTSRQNAGLGGNSALGLGGGNQNDTVNQLAGLLTGMMMMMSMMGGGGLMGGGLGGGLGNGLGGSGGLGEGLSNALNDMLGGSLNTLGSKGGNNTTSTTNSPLDQALGINSTSQNDDSTSGTDSTSDSSDPMQQLLKMFSEI
B6: Fragment 5: amino acids 210-403 of SEQ ID NO: 23, C-terminal fragment (protein, listed as Erwinia amylovora)
chain: MGNGLSQLLGNGGLGGGQGGNAGTGLDGSSLGGKGLQNLSGPVDYQQLGNAVGTGIGMKAGIQALNDIGTHRHSSTRSFVNKGDRAMAKEIGQFMDQYPEVFGKPQYQKGPGQEVKTDDKSWAKALSKPDDDGMTPASMEQFNKAKGMIKRPMAGDTGNGNLQARGAGGSSLGIDAMMAGDAINNMALGKLGAA
B7: Fragment 17: amino acids 105-168 of SEQ ID NO: 23, internal fragment (protein, listed as Erwinia amylovora)
chain: MLGGSLNTLGSKGGNNTTSTTNSPLDQALGINSTSQNDDSTSGTDSTSDSSDPMQQLLKMFSEI
B8: Fragment 9: amino acids 1-104 of SEQ ID NO: 23, N-terminal fragment (protein, listed as Erwinia amylovora)
chain: MSLNTSGLGASTMQISIGGAGGNNGLLGTSRQNAGLGGNSALGLGGGNQNDTVNQLAGLLTGMMMMMSMMGGGGLMGGGLGGGLGNGLGGSGGLGEGLSNALND
B9: Fragment 6: amino acids 267-403 of SEQ ID NO: 23, C-terminal fragment (protein, listed as Erwinia amylovora)
chain: MKAGIQALNDIGTHRHSSTRSFVNKGDRAMAKEIGQFMDQYPEVFGKPQYQKGPGQEVKTDDKSWAKALSKPDDDGMTPASMEQFNKAKGMIKRPMAGDTGNGNLQARGAGGSSLGIDAMMAGDAINNMALGKLGAA
B10: Fragment 7: amino acids 343-403 of SEQ ID NO: 23, smallest C-terminal protein (protein, listed as Erwinia amylovora)
chain: MTPASMEQFNKAKGMIKRPMAGDTGNGNLQARGAGGSSLGIDAMMAGDAINNMALGKLGAA
B11: Fragment 13: amino acids 76-209 of SEQ ID NO: 23, internal fragment (protein, listed as Erwinia amylovora)
chain: MGGGLGGGLGNGLGGSGGLGEGLSNALNDMLGGSLNTLGSKGGNNTTSTTNSPLDQALGINSTSQNDDSTSGTDSTSDSSDPMQQLLKMFSEIMQSLFGDGQDGTQGSSSGGKQPTEGEQNAYKKGVTDALSGL
B12: Fragment 19: amino acids 137-204 of SEQ ID NO: 23, internal fragment (protein, listed as Erwinia amylovora)
chain: STSQNDDSTSGTDSTSDSSDPMQQLLKMFSEIMQSLFGDGQDGTQGSSSGGKQPTEGEQNAYKKGVTD

Legend:
[1] = system: tobacco (Nicotiana tabacum v. Xanthi) leaves; experiment: Induction of HR in tobacco by hrpN truncated proteins; format: in vivo; details: for HR titer: large scale purified protein, concentration down to which HR is elicited in tobacco, — = no HR; for HR elicitation in tobacco (in words): Example 12
Procedure: A 1.5 ml aliquot from the 50 ml cultures grown for small scale purification of the truncated proteins was centrifuged at 14,000 rpm for four minutes and re-suspended in an equal volume of 5 mM potassium phosphate buffer, pH 6.8. The cell suspension was sonicated for ca. 30 seconds then diluted 1:2 and 1:10 with phosphate buffer. Both dilutions plus the neat cell lysate were infiltrated into the fourth to ninth leaves of 10-15 leaf tobacco plants by making a hole in single leaf panes and infiltrating the bacterial lysate into the intercellular leaf space using a syringe without a needle. The HR response was recorded 24-48 hr post infiltration. Tobacco (Nicotiana tabacum v. Xanthi) seedlings were grown in an environmental chamber at 20-25° C. with a photoperiod of 12-h light/12-h dark and ca. 40% RH. Cell lysate was used for the initial HR assays (in order to screen the truncated proteins for HR activity) as the small scale urea purification yielded very little protein which was denatured due to the purification process.
The full length positive control protein elicited HR down to only 5-7 μg/ml. […] This false HR was likely due to an affinity of the imidazole used in the purification process to bind to one or several of the background proteins, thereby not completely dialyzing out.

[2] = system: tomato (Lycopersicon spp. cv. Marglobe); experiment: Induction of growth enhancement (GE/PGE), tomato seed soak; format: in vivo; details: for PGE ht>buffer @20 μg/ml: tomato seeds soaked overnight at 20 μg/ml; for PGE ht>buffer @20 μg/ml / PGE ht>buffer @10 μg/ml / PGE ht>buffer @ 40 μg/ml: height vs buffer control; for PGE ht>buffer @20 μg/ml / PGE ht>buffer @10 μg/ml: >10% needed to pass; for PGE ht>buffer @10 μg/ml: tomato seeds soaked overnight at 10 μg/ml
Procedure: Sixty tomato (Lycopersicon spp. cv. […] The next morning, the sixty seeds were sewn in three pots and 12-15 days later and again 18-20 days later the heights of the 10 tallest tomato plants per pot were measured and compared with the heights of the control plants treated only with phosphate buffer. Analyses were done on the heights to determine if there was a significant difference in the height of the plants treated with the truncated proteins compared with the buffer control, and thereby determine whether the proteins induced growth enhancement.

TMV = experiment: Induction of systemic acquired resistance (SAR), TMV lesions on tobacco; format: in vivo, Nicotiana tabacum; details: tobacco sprayed with 20 μg/ml, reduction in TMV lesions vs buffer control
Procedure: Three tobacco (Nicotiana tabacum cv. Xanthi) plants with 8-12 leaves (ca. 75 day old plants) were used in the assay. One leaf of the tobacco plants was covered up and the rest of the leaves were sprayed with ca. 50 ml of a 20 μg/ml solution of the truncated proteins diluted with 5 mM potassium phosphate buffer. Five to seven days later two leaves (the unsprayed leaf and the sprayed leaf opposite and just above the unsprayed leaf) were inoculated with 20 μl of a 1.8 μg/ml solution of TMV along with a pinch of diatomaceous earth by rubbing the mixture along the top surface of the leaves. The TMV entered the plants through tiny lesions made by the diatomaceous earth. Ca. 3-4 days post TMV inolucation, the number of TMV lesions was counted on both leaves compared with the number of lesions on the negative control buffer treated leaves. Analyses were done to determine the efficacy of reducing the number of TWV lesions by the protein fragents compared to the buffer control. Percentage of efficacy was calculated as: Reduction in TMV lesions (% efficacy)=100×(1−mean # of lesions on treated leaves/mean # of lesions on buffer control leaves).

Row | Molecule | HR titer [1] [µg/mL] | PGE ht>buffer @20 μg/ml [2] [%] | PGE ht>buffer @10 μg/ml [2] [%] | further results
1 | c1c[nH]cn1 [Imidazole] | – | – | – | false HR response ([1]; imidazole at ca. 60 mM): did elicit a false HR response
2 | Fragment 20: amino acids 137-180 of SEQ ID NO: 23, smallest HR domain (STSQNDDSTSGTDSTSDSSDPMQQLLKMFSEIMQSLFGDGQDGT; listed as Erwinia amylovora) | 16 | 9 | – | Efficacy of TMV control (TMV; listed as 20): 64% and 58%
3 | B1 | – | 12 | 9 | HR elicitation in tobacco (in words) [1]: did not elicit HR; Efficacy of TMV control (TMV; listed as 4): 64% and 79%
4 | B2 | – | 20 | 18 | HR elicitation in tobacco (in words) [1]: lost its HR activity; Efficacy of TMV control (TMV; listed as 14): 83% and 87%
5 | B3 | 5 to 7 | 11 | 12 | Efficacy of TMV control (TMV; listed as 1 (+control)): 84% and 72%
6 | B4 | 5 to 10 | 19 | 14 | Efficacy of TMV control (TMV; listed as 15): 57% and 67%
7 | B5 | 1 | 5 | 13 | Efficacy of TMV control (TMV): 69%
8 | B6 | – | 14 | 13 | HR elicitation in tobacco (in words) [1]: did not elicit HR at a detectable level; PGE ht>buffer @ 40 μg/ml [2]: 16% @ 40 μg/ml; Efficacy of TMV control (TMV; listed as 5): 77% and 78%
9 | B7 | – | 16 | 19 | HR elicitation in tobacco (in words) [1]: lost its HR activity; Efficacy of TMV control (TMV): 89%
10 | B8 | 3 | 8 | 4 | Efficacy of TMV control (TMV): 82%
11 | B9 | – | 21 | 21 | PGE ht>buffer @ 40 μg/ml [2]: 23% @ 40 μg/ml; Efficacy of TMV control (TMV; listed as 6): 70% and 72%
12 | B10 | – | 7 | 7 | –
13 | B11 | 5 | 4 | 7 | PGE ht>buffer @ μg/ml ([2]; concentration figure missing in the cell): 18% @ μg/ml; enhanced growth at 60 μg/ml ([2]; tomato, 60 μg/ml): 18%; Efficacy of TMV control (TMV; listed as 13): 44% and 84%
14 | B12 | 3.5 | 13 | 11 | Efficacy of TMV control (TMV; listed as 19): 89% and 77%
